B1: Peripheral plasma membrane protein CASK, residues 488 to 569; numbered along this chain, O14936 (parent)
chain: VRLVQFQKNTDEPMGITLKMNELNHCIVARIMHGGMIHRQGTLHVGDEIREINGISVANQTVEQLQKMLREMRGSITFKIVP

Variants of: B1
Test: abundance fitness (aPCA) (normalised: wild type 0, dead -1); higher = more abundant; growth selection in yeast, the domain comes from the species named
Conditions: Homo sapiens

Abundance fitness: each site, then its substitutions
V1: P -0.376; D 0.055; M 0.099; F -0.026; G -0.037; Q -0.189; H -0.207; L -0.098; I 0.085; C -0.056; K -0.046; S -0.095; R -0.177; N 0.037; Y 0.017; E 0.03; T 0.015; A -0.119; W -0.122
R2: C -0.09; G -0.225; T -0.038; V -0.089; A -0.149; H -0.05; S -0.084; Y -0.002; K -0.055; I -0.029; E -0.028; N 0.091; D -0.149; M 0.019; L -0.159
Q7: E 0.048; F -0.021; T 0.041; I 0.074; A -0.025; P -0.177; K -0.017; Y 0.021; W -0.037; R -0.025; C 0.021; D 0.079; S -0.042; V 0.001; L -0.027; N 0.02; H 0.009
K8: T -0.179; I 0.002; P -0.256; E -0.505; C -0.326; A -0.071; G -0.242; M -0.087; Y -0.093; F -0.291; L -0.028; W -0.136; V -0.007; D -0.403; R -0.021; N -0.098; Q 0.004; S -0.169
Q5: H -0.049; A 0.07; G 0; D -0.038; V 0.029; W -0.106; K 0.128; R 0.074; I -0.068; Y -0.024; L -0.092; M 0.065; E 0.149; T 0.117; F -0.041; S 0.075
L3: C -0.198; Y -0.015; D -0.141; V 0.002; N -0.13; K -0.026; E 0.094; W -0.113; P -0.322; A -0.14; T 0.033; F 0.007; G -0.307; I 0.085; Q 0.018; S -0.026
V4: C -0.165; D -0.842; K -0.259; W -0.307; Q -0.565; M -0.138; S -0.392; A -0.199; R -0.265; L -0.024; F -0.094; T -0.239; G -0.677; H -0.235; Y -0.19; I -0.091
N9: L 0.019; G -0.027; T 0.024; Q -0.008; R -0.031; I -0.015; S -0.009; H -0.027; A -0.003; W -0.081; V 0.005; D 0.024; F -0.035; Y -0.088; E 0.055; C -0.092; M -0.012
T10: N -0.075; C 0.066; A -0.075; I -0.081; E -0.07; M -0.007; Q -0.111; L -0.05; D -0.026; H -0.064; F 0.012; P -0.045; K -0.029; G -0.01
F6: K -0.674; I -0.028; P -0.924; E -0.629; N -0.708; Y -0.095; R -0.673; W -0.251; M 0.052; S -0.321; A -0.065; L 0.053; V 0.061; H -0.181; C -0.01; T -0.129; G -0.405; D -0.712; Q -0.589

Source: the Human Domainome abundance scans (Beltran et al. 2025)
